# According to the supplement of paper PMC9170038:
# System: MS2 coat protein
# Experiment: apparent KD of MS2 coat protein; designed switch direction (-1 OFF switch, 1 ON switch): 1; higher = weaker reporter binding
# Outline: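 Designed RNA switches were transcribed on Illumina chips by stalled E. coli RNA polymerase and titrated with SNAP-549-labelled MS2 coat protein from 0.7 or 1.5 nM, doubling to 3 µM. Step length ran from 0.8–1.5 h at the lowest concentration to 10–20 min at the highest. The apparent KD is the median over clusters for each design, from curve-fitted normalised cluster fluorescence.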
# [1] = Eterna round: R95, input ligand: FMN 200 uM
# [2] = Eterna round: R95, input ligand: microRNA oligo, concentration not stated
# [3] = Eterna round: R95, input ligand: none
# [4] = input ligand: microRNA oligo, concentration not stated
Sequence,apparent KD of MS2 coat protein [1] [nM],apparent KD of MS2 coat protein [2] [nM],apparent KD of MS2 coat protein [3] [nM],apparent KD of MS2 coat protein (input ligand: FMN 200 uM) [nM],apparent KD of MS2 coat protein [4] [nM],apparent KD of MS2 coat protein (input ligand: none) [nM]
UCUUGGUUUUUGCUCGUUUUUUGUGUUGAACAUGAGGAUCACCCAUGUAUUGUACAAUCCAGUUUGAUAAUGGUCCG [JR_SHM208A_Sub045] (puzzle: Sensor for hsa-mir-208a),140,112,167,,,
"UGGCUGGUGCUAGGAUAUGCAUGAGGCCUCCUCGUAGAAGGAGCACGACAUGAGGAUCACCCAUGUAGCCGUCCGUAGACGGCU [salish99_SSNG1_r04_011] (Eterna round: R96, puzzle: Same State NG 1)",,,,62.7,50.1,63.3
"GCGCAAUGAUGUGACAUGAGGAUCACCCAUGUAACCUCAUGUAAGGAUAUCGGGAAAAAAAAAACCGAGAAGGUAUGGUCACGC [AK SSNG3-V2-27.2] (Eterna round: R96, puzzle: Same State NG 3)",,,,145,61.4,138
"GCUACCAUUGAAGCCUACAUGAGGAUCACCCAUGUAUGUAGGCAGGAUAUCGAUUGCUUUGCGAUCGAGAAGGGCUUAGGUAGC [JL SSNG3 1.30] (Eterna round: R96, puzzle: Same State NG 3)",,,,21.6,47.5,60.8
UGGAUCUAGGCUUGCCUGGGUCCUUGUUGACAUGAGGAUCACCCAUGUGUUUUUUUUUUGCUUUUUGUUUGUCAACA [JL A Humble Attempt mod 1] (puzzle: Sensor for hsa-mir-208a),20.8,13.6,26.1,,,
"AGUCCAGCCUGAGCUGGACAAAAGCAUGUACAUGAGGAUCACCCAUGUCAUGUACAAGCUUUUUGCUCAUCUUAAAA [Mat - hsa-mir-208a - Mod of JL - D11] (Eterna round: R96, puzzle: Sensor for hsa-mir-208a)",,,,750,11.8,886
GGUCCGGCCUGAGCUGGACCGAGGCAUGUACAUGAGGAUCACCCAUGUUCAUGUGCAGGCUUUUUGCUCGUCUUGUG [JL-shm-2.06 JL mod] (puzzle: Sensor for hsa-mir-208a),49.6,11,50.6,,,
"UUGUUUUGAAAUUAACAUGAGGAUCACCCAUGUCGUGAGACAGAGGAUAUACAGGAAUGUAGGUAGUAGAAGGCUGUUUAGUGU [JR_SSNG3_Sub099] (Eterna round: R96, puzzle: Same State NG 3)",,,,99.4,95.6,142
AGUCCAGCCUGAGCUGGACAAAAGCAUGUACAUGAGGAUCACCCAUGUUCAUGUACAAGCUUUUUGCUCGUCUUGAA [salish99_208a_r3_095x] (puzzle: Sensor for hsa-mir-208a),710,13.5,817,,,
UCUUGGUUUUUGCUCGUUUUUUGUGUUGAACAUGAGGAUCACCCAUGUAUUGUACGGUCCAAUUUAAUAAUGGUCCA [JMF 37] (puzzle: Sensor for hsa-mir-208a),28.9,15.7,26.7,,,
"UUACUCAUGUAAGGAUAUGCAGCCGAAACGGCUGCAGAAGGUACUAAAAUACAUGAGGAUCACCCAUGUCUAAUUAAUUAAGAC [Mat - Same State NG 1 - JL mod - D84] (Eterna round: R96, puzzle: Same State NG 1)",,,,139,36.3,66.5
"GAGUGGCAGUAAGGAUAUAUAGUGAUAAUCACAGUAGAAGGUACUGACAUGAGGAUCACCCAUGUAGGACUAAUCCAGAGAGAG [Parity 42 - Jieux - Same State NG 1] (Eterna round: R96, puzzle: Same State NG 1)",,,,73.6,26.4,37.5
"CUCACUUGGGUAGGAUAUCUAGGAUAUGGGAAAGACUAAGUCUGUAGGUCACCUAACCCAGAUGGAGAGAAGGACCCAACACUC [pwkr ssNG2 2FMN + F9.38] (Eterna round: R96, puzzle: Same State NG 2)",,,,57.9,2.64,33.1
AUCCUACAUGAGGAUCACCCAUGUGAGGCCUCAAUAGGAUAUGCGUGUGCCUUGGCGCAUGCAGAAGGAUUGAAGC [JL Aveso mod 2] (puzzle: Same State 1),,159,,,,
"GUGGCCCAGGCACAGGAUAUGUUUCUCGUAACAUGAGGAUCACCCAUGUGCCUAUGAGAUUGUUUGCAGAAGGGUGCACGCCACG [JL Atiinbe mod 03] (Eterna round: R96, puzzle: Same State 2)",,,,18.3,146,290
"GCGAGCGUACUUGCUACAUGAGGAUCACCCAUGUUCGUUGGACAGGAUAUGGUACCGUUUCGGUACCAGAAGGGUUCAUCAUGA [JL SSNG3 3.76] (Eterna round: R96, puzzle: Same State NG 3)",,,,75.7,147,241

Sequence,apparent KD of MS2 coat protein [1] [nM],apparent KD of MS2 coat protein [2] [nM],apparent KD of MS2 coat protein [3] [nM],apparent KD of MS2 coat protein (input ligand: FMN 200 uM) [nM],apparent KD of MS2 coat protein [4] [nM],apparent KD of MS2 coat protein (input ligand: none) [nM]
UCUUGGUUUUUGCUCGUUUUUUGUGUUGAACAUGAGGAUCACCCAUGUAUUGUACGGUCCGGUUUAAUAGUGGUCCA [JMF 43] (puzzle: Sensor for hsa-mir-208a),95.4,59.8,105,,,
GUUAAACAUGAGGAUCACCCAUGUCAAUGUAGUCGAGGAUAUGGGCAGCUAUGAGGCGUACUAGAAGGCGAAAAGU [Mat - Same State 1 - Mod of JL - D13] (puzzle: Same State 1),117,260,535,,,
AUAAGUUUGAUGCUCGUCUCUCCGUACUAACAUGAGGAUCACCCAUGUGGUCGGGAAGUAGCCCGGCCAGUAUGGCC [Lequteti] (puzzle: Sensor for hsa-mir-208a),19.5,19.4,19.3,,,
"UGGUACAUGGGAGGAUAUGGAGUGAAGACAUGAGGAUCACCCAUGUUAUAAAUGCCGAGAGGCAACUAGAAGGCCCAUGUACCU [JL SSNG1 3.94] (Eterna round: R96, puzzle: Same State NG 2)",,,,,54.3,
GGUCCAGCCUGAGCUGGACAAAAGCAUGUACAUGAGGAUCACCCAUGUUCAUGUACAAGCUUUUUGCUCGUCUUAGA [salish99_208a_r3_068] (puzzle: Sensor for hsa-mir-208a),629,15.5,747,,,
UGCUAUUGUAUAUUGGUGCAAGCUUUUUGACAUGAGGAUCACCCAUGUACUCGUCAUUAGCGCAGUCCGUAGACUGC (puzzle: Sensor for hsa-mir-208a),74.2,15.7,79,,,
AUUAAACAUGAGGAUCACCCAUGUAUUAUUAUGGGAGGAUAUGCGAAUUUAAUUAAUUAAGCAGAAGGCCUAAUUA [Mat - Same State 1 - D102] (puzzle: Same State 1),18.7,98.3,141,,,
"UGGCUCAGAGCAGGAUAUAUGUGAUCACAUGAGGAUCACCCAUGUCUCGAGCUUCGGCUCGAGACAUAGAAGGGCUCUGAGCCU [SSNG2/3-B3] (Eterna round: R96, puzzle: Same State NG 2)",,,,110,52.7,137
GUGCAACCGUGUGAGGAUAUCGGUGGUAAAACAUGAGGAUCACCCAUGUCCGAAGCUCGGACCUCCGAGAAGGCGCACAGUUGCA [Same State 2 - Mod of Erisin v.1] (puzzle: Same State 2),6.82,5.46,7.08,,,
"AGCUAUUAAUCAGGAUAUAGUGACAUGAGGAUCACCCAUGUAUUGAUGAUUAAAUGUGGUCGCCGCUAGAAGGGAUUACUAACA [SameState NG2 #46] (Eterna round: R96, puzzle: Same State NG 2)",,,,35.2,23.2,30.7
GGUCCAGCCUGAGCUGGACAAAAGCAUGUACAUGAGGAUCACCCAUGUCAUGUGCAAGCUUUUUGCUCGUCUUAAAA [JL mod - D87 - 4] (puzzle: Sensor for hsa-mir-208a),67.3,11,73.4,,,
"CGUCGUUUGAUAGGAUAUCGCUUUACAUGAGGAUCACCCAUGUUUACCUCGCUGGUUUUUCUUUCCGAGAAGGAUUCUGAUGUU [salish99_SSNG02_r04_030] (Eterna round: R96, puzzle: Same State NG 2)",,,,43.4,31.6,40.4
UUUAGUUGCGGGCAGGAUAUGUAUUAAAAUACAUGAGGAUCACCCAUGUGAGAUCAUAAAGAUCUACAGAAGGGCCAAUCGCGAC [Laonerce - 18] (puzzle: Same State 2),13.4,69.4,91.6,,,
"UAAAGAUAGCGAGGAUAUCGCGAGGAUCACCCGUGAGAAGGCGCAGAGCCGAGGAUCACCCGGCUGAUCCUGAGGAGGAGGUCA (Eterna round: R96, puzzle: Same State NG 1)",,,,108,197,249
"GCUAGGAUAUGACGAGGAUCACCCGUUAGAAGGAGCUUCAGCUAGGAUAUGACGAGGAUCACCCGUUAGAAGGAGCACUACUCU [pwkr ssNG3 DX 2xF5 +2xFMN.8] (Eterna round: R96, puzzle: Same State NG 3)",,,,205,90.9,91.4
